Experiment [1] concerns the target DL06-HA, full length HA of A/duck/Laos/3295/2006(H5N1) (clade 2.3.4) (influenza A virus A/duck/Laos/3295/2006(H5N1)). Put plainly: cell-based or functional assay.
Experiment [2] has as its target VN04-HA, full length HA of A/Vietnam/1203/2004(H5N1) (clade 1) (influenza A virus A/Vietnam/1203/2004(H5N1)). Put plainly: cell-based or functional assay.
In experiment [3] the target is Indo05-HA, full length HA of A/Indonesia/5/2005(H5N1) (clade 2.1) (influenza A virus A/Indonesia/5/2005(H5N1)). Put plainly: cell-based or functional assay.
In experiment [4] the target is Hatay04-HA, full length HA of A/chicken/Hatay/2004(H5N1) (clade 1) (influenza A virus A/chicken/Hatay/2004(H5N1)).
For experiment [5], the target named is DL06-HA, full length HA of A/duck/Laos/3295/2006(H5N1) (clade 2.3.4) (influenza A virus A/duck/Laos/3295/2006(H5N1)).
The target of experiment [6] is VN04-HA, full length HA of A/Vietnam/1203/2004(H5N1) (clade 1) (influenza A virus A/Vietnam/1203/2004(H5N1)).

B1: xi-IgG1-9F4 (antibody, V domains shown)
V domain 1: QQSEAELARPGASVKMSCKASGFTLTTFTIHWVKQRPGQGLEWIGYINPRSGYTDYNQKFKDNTTLTVDKSSSTAYMQLSSLTSEDSAVFYCARSYYDYDVFDYWGQGTTLTV
V domain 2: DVQMTQSPSSLSASLGGKVTITCTARQDINKYIAWYQHKPGKGPRLLIHYTSTLQPGIPSRFSGSGSGTDYSFTISNLEPEDIATYYCLQYDNLVTFGGGTK
On to B1, for which the IC50, entry of HA-pseudotyped lentiviral particles into MDCK cells (luciferase) in experiment [1], in experiment [2] and in experiment [3] was 10 ng/mL each time. Also, the reduction of HApp entry at the highest concentration tested in experiment [1] and in experiment [2] was 90% in each case.

B2: xi-IgA1-9F4 (antibody, V domains shown)
VH: QVQLQQSEAELARPGASVKMSCKASGFTLTTFTIHWVKQRPGQGLEWIGYINPRSGYTDYNQKFKDNTTLTVDKSSSTAYMQLSSLTSEDSAVFYCARSYYDYDVFDYWGQGTTLTVSS
VL: DVQMTQSPSSLSASLGGKVTITCTARQDINKYIAWYQHKPGKGPRLLIHYTSTLQPGIPSRFSGSGSGTDYSFTISNLEPEDIATYYCLQYDNLVTFGGGTKLELKR
In experiment [2], B2 returned an IC50, entry of HA-pseudotyped lentiviral particles into MDCK cells (luciferase) of 100 ng/mL; a fold change of IC50 in the HApp neutralization assay against mouse-9F4 of 10 fold; an inhibition of VN04-HApp entry at 1000 ng/ml of 75%. In experiment [4], this molecule returned an endpoint titre of 1250 ng/mL. The molecule further gave an endpoint titre in experiment [5] of 1250 ng/mL. Also, in experiment [6], the endpoint titre was 1250 ng/mL.
